In the supplement of paper PMC9732359:
± gives the uncertainty stated by the source.

Assay: protein stability index of a GFP-peptide fusion (yeast GPS) (PSI 1-4); higher = more stable; sorted into four equal gates, so the index is relative within each strain
Outline: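 Tiled 17-residue peptides from yeast proteins were fused downstream of GFP on a plasmid that also expresses Cherry, and the pooled library was carried in yeast. Mid-log cultures grown in leucine-free medium were sorted into four equal gates by GFP/Cherry fluorescence ratio. Plasmids from each gate were PCR-amplified and Illumina-sequenced, and reads were assigned to strains by barcodes. Each peptide's protein stability index is the sum, over gates, of the gate's read frequency multiplied by its gate number.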

SHNWAAKAKRRHTTGTG [RPL37B]
protein stability index (doa10∆): 3.29 ± 0.1
protein stability index (pdr5∆): 2.92 ± 0.058
protein stability index (san1∆): 3.33 ± 0.071
protein stability index (ubr1∆): 3.35 ± 0.056

ADLKKGKDLSPAINYTK [QCR2]
protein stability index (doa10∆): 3.26 ± 0.13
protein stability index (pdr5∆): 3.36 ± 0.08
protein stability index (san1∆): 3.32 ± 0.086
protein stability index (ubr1∆): 3.23 ± 0.065

KSGRINGFHGRLGDLGV [SMC4]
protein stability index (doa10∆): 3.41 ± 0.11
protein stability index (pdr5∆): 3.43 ± 0.093
protein stability index (san1∆): 3.13 ± 0.1
protein stability index (ubr1∆): 3.31 ± 0.045

GKLWKDVKARIAAGDGD [QCR9]
protein stability index (doa10∆): 2.3 ± 0.11
protein stability index (pdr5∆): 2.58 ± 0.16
protein stability index (san1∆): 2.17 ± 0.07
protein stability index (ubr1∆): 2.37 ± 0.098

KYRPETAAEKKERLTKE [RPL8A]
protein stability index (doa10∆): 3.08 ± 0.081
protein stability index (pdr5∆): 2.76 ± 0.076
protein stability index (san1∆): 3.12 ± 0.056
protein stability index (ubr1∆): 3.01 ± 0.067

TVYISSIALLKMLKHGR [RPN11]
protein stability index (doa10∆): 2.25 ± 0.085
protein stability index (pdr5∆): 2.09 ± 0.079
protein stability index (san1∆): 2.65 ± 0.054
protein stability index (ubr1∆): 2.79 ± 0.066

DSNTTEILTSVDVLGTH [SIR4]
protein stability index (doa10∆): 2.92 ± 0.063
protein stability index (pdr5∆): 2.96 ± 0.058
protein stability index (san1∆): 2.93 ± 0.06
protein stability index (ubr1∆): 3.04 ± 0.036

PGTTSTGNNNNIATQQN [GAL11]
protein stability index (doa10∆): 2.03 ± 0.052
protein stability index (pdr5∆): 2.69 ± 0.081
protein stability index (san1∆): 2.77 ± 0.085
protein stability index (ubr1∆): 2.73 ± 0.056

FKYVEDRFPLKLREPVA [ITC1]
protein stability index (doa10∆): 2.42 ± 0.094
protein stability index (san1∆): 1.81 ± 0.26
protein stability index (ubr1∆): 2.73 ± 0.093

EIKKMIITNINAIFLSS [YCG1]
protein stability index (doa10∆): 2.49 ± 0.11
protein stability index (pdr5∆): 1.94 ± 0.088
protein stability index (san1∆): 1.8 ± 0.081
protein stability index (ubr1∆): 1.81 ± 0.12

LHVVSKSSIEKDPSPEI [SIN4]
protein stability index (doa10∆): 2.91 ± 0.054
protein stability index (pdr5∆): 3.03 ± 0.066
protein stability index (san1∆): 3.13 ± 0.052
protein stability index (ubr1∆): 3.14 ± 0.051

KQHAVLMLGSVNLPGGI [RRP4]
protein stability index (doa10∆): 2 ± 0.049
protein stability index (pdr5∆): 2.17 ± 0.058
protein stability index (san1∆): 1.94 ± 0.081
protein stability index (ubr1∆): 1.66 ± 0.037

GENDDDTLDGDLMDDMS [RPN3]
protein stability index (doa10∆): 2.73 ± 0.17
protein stability index (pdr5∆): 2.7 ± 0.075
protein stability index (san1∆): 2.11 ± 0.12
protein stability index (ubr1∆): 2.15 ± 0.1

IWLLSYIQYLGHLPEVS [ECM29]
protein stability index (doa10∆): 1.62 ± 0.071
protein stability index (pdr5∆): 1.9 ± 0.06
protein stability index (san1∆): 2.21 ± 0.063
protein stability index (ubr1∆): 1.92 ± 0.057

AGNSQITSGGFLLKAYI [SRB5]
protein stability index (doa10∆): 2.11 ± 0.1
protein stability index (pdr5∆): 2.53 ± 0.097
protein stability index (san1∆): 2.24 ± 0.17
protein stability index (ubr1∆): 2.92 ± 0.11

LINEILLKSNDPLLSLY [RGR1]
protein stability index (doa10∆): 2.04 ± 0.046
protein stability index (pdr5∆): 2.15 ± 0.043
protein stability index (san1∆): 1.87 ± 0.077
protein stability index (ubr1∆): 2.13 ± 0.035

TTQIDLFRIFSMSEEFK [BRR2]
protein stability index (doa10∆): 2.4 ± 0.14
protein stability index (pdr5∆): 3.12 ± 0.1
protein stability index (san1∆): 2.49 ± 0.23
protein stability index (ubr1∆): 3.12 ± 0.073

NFLQESYEVEHVIQIPL [TAF14]
protein stability index (doa10∆): 2.49 ± 0.094
protein stability index (pdr5∆): 2.94 ± 0.092
protein stability index (san1∆): 2.55 ± 0.067
protein stability index (ubr1∆): 2.81 ± 0.082

PNGTKKAYVRLTADYDA [RPL25]
protein stability index (san1∆): 3.07 ± 0.16
protein stability index (ubr1∆): 3.34 ± 0.15

RYADAGNIDTKNNILGS [RRP43]
protein stability index (doa10∆): 3.31 ± 0.062
protein stability index (pdr5∆): 3.06 ± 0.05
protein stability index (san1∆): 3.12 ± 0.039
protein stability index (ubr1∆): 3.04 ± 0.049

KKNNKIKESSKKIKGKS [SRP21]
protein stability index (doa10∆): 3.07 ± 0.1
protein stability index (san1∆): 3.26 ± 0.052

HILAVKKMMNTLVHTRV [SSN2]
protein stability index (doa10∆): 2.25 ± 0.056
protein stability index (pdr5∆): 2.03 ± 0.062
protein stability index (san1∆): 2.06 ± 0.086
protein stability index (ubr1∆): 1.34 ± 0.059

KADIGKPGRMPFNFTVT [CDC53]
protein stability index (doa10∆): 2.33 ± 0.042
protein stability index (pdr5∆): 2.75 ± 0.048
protein stability index (san1∆): 2.73 ± 0.058
protein stability index (ubr1∆): 2.89 ± 0.05

GAGGLNPFTSATSSTNA [YOR098C/NUP1]
protein stability index (doa10∆): 2.04 ± 0.12
protein stability index (pdr5∆): 2.07 ± 0.18
protein stability index (san1∆): 2.69 ± 0.18
protein stability index (ubr1∆): 2.94 ± 0.13

NDDELNKLLGNVTIAQG [HTA1]
protein stability index (doa10∆): 3.31 ± 0.12
protein stability index (pdr5∆): 3.5 ± 0.12
protein stability index (san1∆): 3.48 ± 0.064
protein stability index (ubr1∆): 3.34 ± 0.078

PTIRSNAVLGLGDMAVC [YCS4]
protein stability index (doa10∆): 1.61 ± 0.088
protein stability index (pdr5∆): 1.64 ± 0.069
protein stability index (san1∆): 1.67 ± 0.13
protein stability index (ubr1∆): 1.71 ± 0.099

MVHREFLKLANGGKFSK [RGR1]
protein stability index (doa10∆): 3.22 ± 0.08
protein stability index (pdr5∆): 2.74 ± 0.074
protein stability index (san1∆): 3.14 ± 0.12
protein stability index (ubr1∆): 2.91 ± 0.07

SKGYVKTQFSWQYYYYT [RPS10A]
protein stability index (doa10∆): 2.81 ± 0.077
protein stability index (pdr5∆): 2.54 ± 0.06
protein stability index (san1∆): 2.76 ± 0.05
protein stability index (ubr1∆): 2.92 ± 0.056

DFKEVEDFLHFIVAEYI [SRB4]
protein stability index (doa10∆): 2.73 ± 0.071
protein stability index (pdr5∆): 3.22 ± 0.11
protein stability index (san1∆): 3.13 ± 0.056
protein stability index (ubr1∆): 3.14 ± 0.056

LLVKFIKFFWNNTHVGR [YLR018C/POM34]
protein stability index (doa10∆): 2.97 ± 0.22
protein stability index (pdr5∆): 2.48 ± 0.085
protein stability index (san1∆): 2.51 ± 0.085
protein stability index (ubr1∆): 2.66 ± 0.095

RQQQENSSKIITLDLSN [SMC1]
protein stability index (doa10∆): 3.22 ± 0.11
protein stability index (pdr5∆): 3.35 ± 0.066
protein stability index (san1∆): 3.18 ± 0.066
protein stability index (ubr1∆): 3.18 ± 0.061

LIETVFVKNIRMLSFED [RPN9]
protein stability index (doa10∆): 2.19 ± 0.044
protein stability index (pdr5∆): 1.89 ± 0.05
protein stability index (san1∆): 1.78 ± 0.066
protein stability index (ubr1∆): 1.97 ± 0.041

KKGEYARFKSKDERDTW [SMC3]
protein stability index (pdr5∆): 3.23 ± 0.17
protein stability index (san1∆): 2.69 ± 0.098
protein stability index (ubr1∆): 3.32 ± 0.17

SKLKLKNLLRKNLSIDE [ECM29]
protein stability index (doa10∆): 1.71 ± 0.086
protein stability index (pdr5∆): 1.47 ± 0.054
protein stability index (san1∆): 1.46 ± 0.098
protein stability index (ubr1∆): 1.76 ± 0.062

GKICLILTRLNGILPDD [SSN2]
protein stability index (doa10∆): 3.12 ± 0.21
protein stability index (ubr1∆): 3.5 ± 0.15

HLGCVPIGEAGDFGGWF [RIP1]
protein stability index (doa10∆): 2.81 ± 0.12
protein stability index (pdr5∆): 3.08 ± 0.11
protein stability index (san1∆): 2.7 ± 0.11
protein stability index (ubr1∆): 3.06 ± 0.14

PISKHSKQAIYTRAAAS [RPS25B]
protein stability index (doa10∆): 2.64 ± 0.067
protein stability index (pdr5∆): 2.63 ± 0.054
protein stability index (san1∆): 2.43 ± 0.061
protein stability index (ubr1∆): 2.83 ± 0.051

LTKYIRSKNLIFNGETL [GRR1]
protein stability index (doa10∆): 2.52 ± 0.086
protein stability index (pdr5∆): 2.43 ± 0.06
protein stability index (san1∆): 1.92 ± 0.078
protein stability index (ubr1∆): 1.91 ± 0.06

AASFKKLYKTPIPIPAF [PRE10]
protein stability index (doa10∆): 2.54 ± 0.14
protein stability index (pdr5∆): 3.15 ± 0.12
protein stability index (san1∆): 2.75 ± 0.079
protein stability index (ubr1∆): 3 ± 0.12

SDPNNQSLNEMVKLIVM [YJL039C/NUP192]
protein stability index (doa10∆): 2.66 ± 0.066
protein stability index (pdr5∆): 2.74 ± 0.052
protein stability index (san1∆): 2.97 ± 0.078
protein stability index (ubr1∆): 2.35 ± 0.056

TQQPGTNSHYNNTNTDN [SNF2]
protein stability index (doa10∆): 3.17 ± 0.046
protein stability index (pdr5∆): 3.26 ± 0.04
protein stability index (san1∆): 3.21 ± 0.036
protein stability index (ubr1∆): 3.204 ± 0.028

TPLFPIDRNSTILYLNV [IRR1]
protein stability index (doa10∆): 2.71 ± 0.083
protein stability index (pdr5∆): 1.87 ± 0.072
protein stability index (san1∆): 2.93 ± 0.092
protein stability index (ubr1∆): 2.69 ± 0.098

YQMHIKTSKDIAVLRSK [FAS1]
protein stability index (doa10∆): 2.25 ± 0.051
protein stability index (pdr5∆): 2.14 ± 0.062
protein stability index (san1∆): 2.3 ± 0.062
protein stability index (ubr1∆): 2.46 ± 0.072

KHWTEKSLHEMNERDWR [PRP28]
protein stability index (doa10∆): 3.55 ± 0.21
protein stability index (pdr5∆): 3.02 ± 0.3
protein stability index (san1∆): 2.97 ± 0.2

RNVGKTLVNKSTGLKNA [RPS1B]
protein stability index (doa10∆): 2.81 ± 0.098
protein stability index (pdr5∆): 2.72 ± 0.097
protein stability index (san1∆): 2.59 ± 0.12
protein stability index (ubr1∆): 2.96 ± 0.086

SLTQSVCDLALRFGEGA [PUP2]
protein stability index (doa10∆): 2.66 ± 0.19
protein stability index (pdr5∆): 3.34 ± 0.21
protein stability index (ubr1∆): 3.11 ± 0.21

TVQSERAFQKQPHIFNN [RPS11A]
protein stability index (doa10∆): 2.69 ± 0.051
protein stability index (pdr5∆): 2.58 ± 0.043
protein stability index (san1∆): 2.53 ± 0.045
protein stability index (ubr1∆): 2.79 ± 0.034

HTPTIASYLTPLLEAKK [SSN2]
protein stability index (doa10∆): 3.04 ± 0.063
protein stability index (pdr5∆): 3.04 ± 0.051
protein stability index (san1∆): 3.01 ± 0.049
protein stability index (ubr1∆): 3.07 ± 0.048

KENLSKSSWRQEWLANL [SIR4]
protein stability index (doa10∆): 1.98 ± 0.048
protein stability index (pdr5∆): 1.68 ± 0.034
protein stability index (san1∆): 1.92 ± 0.07
protein stability index (ubr1∆): 2.55 ± 0.026

VKFLVYQGVYSMGSILL [YML031W/NDC1]
protein stability index (doa10∆): 1.65 ± 0.091
protein stability index (pdr5∆): 1.43 ± 0.088
protein stability index (san1∆): 1.28 ± 0.099
protein stability index (ubr1∆): 1.7 ± 0.17

DTYKRFKYLLGVTDLFR [ISW2]
protein stability index (doa10∆): 1.85 ± 0.045
protein stability index (pdr5∆): 1.37 ± 0.052
protein stability index (san1∆): 1.21 ± 0.11
protein stability index (ubr1∆): 1.34 ± 0.075

ISPSAPSKDSFTKYKPA [YAR002W/NUP60]
protein stability index (doa10∆): 2.65 ± 0.079
protein stability index (pdr5∆): 2.9 ± 0.069
protein stability index (san1∆): 2.69 ± 0.094
protein stability index (ubr1∆): 2.98 ± 0.042
